Among the data in patent publication US20080176814, “DNA-BASED APTAMERS FOR HUMAN CATHEPSIN G” (GENTIUM SPA, published 2008) are Kd and binding signal values, retold here.

Like-named read-outs stand apart in the source and are kept apart here.

In data set [1] the target is T1, Cathepsin G (Homo sapiens) (UniProt P08311).
T1 sequence: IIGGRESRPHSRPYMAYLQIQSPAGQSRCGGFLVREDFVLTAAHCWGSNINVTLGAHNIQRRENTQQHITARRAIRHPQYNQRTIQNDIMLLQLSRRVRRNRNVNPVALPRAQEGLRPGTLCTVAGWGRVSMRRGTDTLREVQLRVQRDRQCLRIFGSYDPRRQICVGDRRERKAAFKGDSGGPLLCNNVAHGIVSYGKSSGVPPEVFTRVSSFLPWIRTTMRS
The conditions noted are these: affinity chromatography; same buffer.

For data set [2], the target named is T1, Cathepsin G (Homo sapiens). The settings on record: affinity chromatography; same buffer. This is another data set of the same source.
For data set [3], the target named is T1, Cathepsin G (Homo sapiens). In words: SPR.
In data set [4] the target is T1, Cathepsin G (Homo sapiens). The experiment in a line: SELEX. The conditions noted are these: cycle 9 yield (0.4% at cycle 1); 30 mM Tris pH 7.5, 150 mM NaCl, 5 mM KCl, 5 mM MgCl2.
Data set [5] addresses T2, Cathepsin G (Homo sapiens, UniProt P08311 P08311:21-244).
T2 sequence: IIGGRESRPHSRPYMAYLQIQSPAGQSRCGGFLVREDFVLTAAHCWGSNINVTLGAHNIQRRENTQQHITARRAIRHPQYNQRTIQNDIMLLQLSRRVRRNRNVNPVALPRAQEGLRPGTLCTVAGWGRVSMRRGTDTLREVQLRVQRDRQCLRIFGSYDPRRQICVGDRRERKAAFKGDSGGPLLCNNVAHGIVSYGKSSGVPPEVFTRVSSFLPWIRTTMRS
The conditions noted are these: affinity chromatography; G-quartet control.

In data set [6] the target is T2, Cathepsin G. In words: affinity chromatography; same buffer. The settings on record: tags: Europa Bioproducts or Calbiochem; from human neutrophils (SPR, amine-coupled to CM5 chip). As for the experimental part:
The affinity of the oligonucleotides was determined by affinity chromatography as performed in the selection. Different aliquots of each oligonucleotide were previously incubated with 15 μg of Cathepsin G in ice. The solution was then loaded in the min-chromatography column used for the selection and washed with 15 volumes of buffer IB. After one hour incubation, it was washed with six volumes of buffer EB. Fractions of the same volumes were collected and counted.
We evaluated the oligonucleotide binding to cathepsin G by affinity chromatography in analogy with the selection method. The affinity of the aptamer CG51 was firstly compared with AC and GT oligonucleotides of the same length that, as mentioned, are clearly unable to fold into any structure characterised by Watson-Crick base pairs or G quartets formation. The complementary sequence of CG51, called cmpCG51, was included as a control.

Where [7] appears, read: relative potency vs GT 100, 25 C.

In the case of AC [(AC)30], the Kd (in general, the equilibrium constant for the complex coming apart) in data set [1] came out at 0.8 nM. This lies in the sub-nanomolar range.

AC [(AC)60] registered an equilibrium dissociation constant (Kd) in data set [2] of 1.2 nM.

On to AC [AC 40], for which the binding signal in data set [3] (setting [7]) was found to be 0.0047.

In turn, AC [AC 80] displayed a binding signal in data set [3] (setting [7]) of 0.017.

Regarding “CGTACGGAATTCGCTAGCNNNNNNNNNNNNNNNNNNNNNNNNNNNNNNNNNNNNNNNNNNNNNNNNNNNNNNNNNNNNGGATCCGAGCTCCACGTG [cycle 9 selected pool]”, in data set [4], the binding signal turned out to be 42%.

In data set [2], GT [(GT)10 / GT 20] displayed a Kd of 2 nM.

In data set [2], GT [(GT)20 / GT 40] displayed a Kd of 1.5 nM. Besides, the binding signal in data set [3] (setting [7]) is 0.016.

Consider GT [(GT)30 / GT 60], for which the Kd in data set [1] was 1 nM. In addition, the binding signal in data set [3] (setting [7]) turned out to be 0.144.

GT [(GT)40 / GT 80] gave a Kd in data set [2] of 1.2 nM. The molecule further registered a binding signal in data set [3] (setting [7]) of 0.32.

In turn, GT [GT 30] had a binding signal in data set [3] (setting [7]) of 0.002.

For GT [GT 100], the binding signal in data set [3] (relative potency, reference standard, HBS-EP pH 7.4, 25 C) turned out to be 1.

In the data set with Cathepsin G [5], THR thrombin aptamer displayed a Kd of 4 nM.

B1: cmpCG51 (ssDNA)
DNA: ACACGAATACCCTCTGTGCTCAGCGTAACACCCAAGCGTATACCCACATATCACACGTTG
modifications: [NONE]
In the data set with Cathepsin G [6], B1 returned a Kd of 0.6 nM.
